{"source": "patent US20240002499A1", "about": "“ANTI-CLIC1 PROTEIN ANTIBODIES AND THE DIAGNOSTIC AND THERAPEUTIC USES THEREOF” (Universita' Degli Studi di Milano, priority 2020, published 2024)", "molecules": {"B1": {"name": "tmCLIC1omab: IgG1 class antibody containing the heavy chain variable region SEQ ID NO:13 and the light chain variable region SEQ ID NO:14 (antibody, listed as Mus musculus, V domains shown)", "VH": "EVMLVESGGGLVKPGGSLKLSCAASGFAFSNYAMSWIRQIPEKRLEWVATISTGGSSTFYPDSVKGRFTISRDNAKNTLYLQMSSLRSEDTAMYYCTRHAYEAWFAYWGQGTLVTVSA", "VL": "QIVLTQSPALMSASPGEKVTMTCSASSSVSYMYWYQQRPRSSPKPWIYLTSTLASGVPTRFSGSGSGTSYSLTISSMEAEDAATYYCQQWNSHPLTFGSGTKLEIK"}}, "key": {"[1]": {"tested_on": "pMAP38", "experiment": "Western blot of phosphorylated MAP38 in COLO201", "format": "cell-based", "settings": "COLO201, 72 h of treatment"}, "[2]": {"tested_on": "microglial cells", "experiment": "Growth curves of microglial cells stimulated with β-amyloid", "format": "cell-based, mice", "settings": "1 μM β-amyloid, 4-day observation period", "protocol": "The microglial cells used (BV-2) originated from an immortalised cell line deriving from C57BL/6 mice and commonly marketed. The culture medium used was RPMI (Thermo Fisher Scientific) with the addition of 10% FBS (Euroclone) and 1% Pen/Strep ([…], Thermo Fisher Scientific).\n(§1) The cells were seeded in 24-well plates (20,000 cells/well) and counted after 24, 48, 72 and 96 hours to construct the growth curve. The cells were collected and centrifuged, and the resuspended pellet was diluted 1:1 with Trypan Blue. An automated counter (Countess II, Thermo Fisher Scientific) was used to count the cells. All data were normalized to their controls."}, "[3]": {"molecular_target": "T1, CLIC1 (Homo sapiens, UniProt O00299)", "T1 construct": "expressed in transfected cells; host or cells: HEK cells", "experiment": "Whole-cell patch clamp on HEK cells transfected with CLIC1 plasmid", "format": "cell-based", "settings": "HEK cells overexpressing CLIC1; voltage steps from −60 to +80 mV; IAA94 50 μM", "protocol": "FIG. 17. Current/voltage relationship of CLIC1 membrane current in whole-cell patch clamp experiments. HEK cells were transfected with CLIC1 plasmid to overexpress the CLIC1 protein. After recording control current (filled cycles; n=5) cells were perfused alternatively with the polyclonal antibody (open triangles; n=7), tmCLIComab (inverse open triangles; n=10) and with 50 μM IAA94 (filled squared; n=11). The whole cells current is expressed as a current density.\nThe reference sequence of the CLIC1 protein used in the experiments described in the present patent application is filed at UniProt under number UniProtKB—000299 (CLIC1 human), and described in the article Harrop S. J. et al., “Crystal structure of a soluble form of the intracellular chloride ion channel CLIC1 (NCC27) at 1.4-Å Resolution”; The Journal of Biological Chemistry, Vol. 276 No. 48, November 30, pp. 44993-45000 (2001).\nThe potential was set on the basis of the resting potential of each cell (between 0 and −80 mV). The CLIC1-mediated chlorine currents were isolated from other ion currents by mathematical subtraction of the residual current following perfusion of 100 μM IAA94 dissolved in the external solution."}, "[4]": {"tested_on": "Metalloproteinase 7 (MMP7)", "experiment": "Western blot of Metalloproteinase 7 in COLO201", "format": "cell-based", "settings": "COLO201, 72 h of treatment"}, "[5]": {"tested_on": "COLO201", "experiment": "COLO201 spheroids, 3D culture", "format": "cell-based", "settings": "treated 24 to 96 hours, area normalized on initial area", "protocol": "To evaluate whether tmCLIC1omab is able to penetrate across tumor spheroids, a 3D culture was performed. After the complete formation of spheroids, treatments were added and the area was measured every 24 hours up to 96 hours. The area at each time point was then normalized on the initial spheroids' area.\nSpheroids were formed with hanging-drop method and then plated in rounded 96 plates coated with 5% of agar. After the complete formation of spheroids, treatments were added and the area was measured every 24 hours up to 96 hours. The area at each time point was then normalized on the initial spheroids' area."}, "[6]": {"molecular_target": "T2, peptide […] (amino acids 3-24 of the CLIC1 protein) (Homo sapiens, UniProt O00299)", "T2 construct": "conducted against the peptide […]; (amino acids 3-24 of the CLIC1 protein); host or cells: synthetic peptide microarray (PEPperMAP)", "experiment": "PEPperMAP epitope mapping on CLIC1 peptide microarrays", "format": "binding", "protocol": "PEPperMAP epitope Mapping® of the tmCLIC1omab antibody was conducted against the peptide […] (amino acids 3-24 of the CLIC1 protein) translated to linear peptides consisting of 5, 10 and 15 amino acids with peptide-peptide overlaps of 4, 9 and 14 amino acids for high-resolution epitope data. The resulting CLIC1 peptide microarrays were incubated with the antibody samples at concentrations of 1 μg/ml, 10 μg/ml, 100 μg/ml and 250 μg/ml in incubation buffer, followed by staining with secondary and control antibodies and reading with a LI-COR Odyssey Imaging System. The intensity of the points and peptide annotation were quantified with the PepSlide® Analyzer."}, "[7]": {"tested_on": "mouse glioblastoma cells", "experiment": "Glioblastoma cell growth curves, polyclonal antibody versus tmCLIC1omab", "format": "cell-based", "settings": "exposing cells for 96 hours", "protocol": "as §1\nThe cells were plated in 24-well multiwell plates at a density of 10,000 cells/cm 2. The number of live and dead cells for each sample was counted after 72 hours with an automated counter (Countess II, Thermo Fisher Scientific), following the same process as used for the growth curves. All data were standardised to the corresponding controls."}, "[8]": {"tested_on": "human glioblastoma cells", "experiment": "Glioblastoma cells pre-treated with antibody, inoculated into the brain of immunodepressed mice, magnetic resonance scan", "format": "in vivo", "settings": "cells incubated 72 hours with antibody before inoculation; scan two months after inoculation", "protocol": "In the in vivo experiments, human glioblastoma cells were incubated for 72 hours with tmCLIC1omab antibody before being inoculated into the brain of immunodepressed mice.\nPatient-derived neurospheres were mechanically dissociated, resuspended in […], and injected into the caudate nucleus (1 mm posterior, 3 mm left lateral, 3.5 mm deep relative to bregma) of 5-week-old female CD1 nu/nu mice (Charles River, Wilmington, MA). The cells were incubated with the antibody or the control isotype for 72 hours before implantation (10^5 cells) into the brain of immunodeficient mice. The experiments were conducted pursuant to Italian law (Order of the Executive 116/92, as amended), which transposes EU Directive 86/609 (Council Directive 86/609/EEC of 24 Nov. 1986 on the approximation of laws, regulations and administrative provisions of the Member States regarding the protection of animals used for experimental and other scientific purposes)."}, "[9]": {"tested_on": "microglial cells", "experiment": "ROS production in cultured microglial cells", "format": "cell-based, mice", "settings": "after addition of β-amyloid and antibody", "protocol": "A second functional experiment performed on microglial cells involved measuring the production of reactive oxygen species (ROS), which contribute to creating a highly oxidising environment harmful to the neurones. Once again (FIG. 5), a physiological increase in cytoplasmic ROS was recorded (baseline), with ROS production after addition of β-amyloid, and finally, cell oxidation during the simultaneous presence of amyloid peptide and the tmCLIC1omab antibody."}, "[10]": {"tested_on": "human glioblastoma cells", "experiment": "ROS production in human glioblastoma cells in primary culture", "format": "cell-based", "protocol": "In the subsequent functional experiment, ROS production was measured over time. The graph in FIG. 11 relates to the acquisition of fluorescence signals proportional to the amount of cytoplasmic ROS in glioblastoma cells. The cells were treated with both the antibody and the tmCLIC1 channel blocker."}}, "note": "Entries after “also recorded” stand apart in the source; their conditions may differ.", "data": [{"molecule": "B1", "values": [{"measurement": "expression of pMAP38", "setting": "[1]", "result": "downregulated"}, {"measurement": "cell proliferation in the presence of β-amyloid", "setting": "[2]", "result": "completely inhibited"}, {"measurement": "inhibition of CLIC1 ionic whole-cell current", "setting": "[3]", "result": "matched only by tmCLIC1omab"}, {"measurement": "expression of Metalloproteinase 7", "setting": "[4]", "result": "mainly abolished"}, {"measurement": "spheroids' area / proliferation of spheroids versus control", "setting": "[5]", "result": "significantly smaller compared to the control from 48 h; also recorded: impair proliferation of spheroids significantly after 48 hours"}, {"measurement": "binding to the QVELFV sequence", "setting": "[6]; linear peptide microarray", "result": "with lower affinity, binds the QVELFV sequence (SEQ ID NO:27) well"}, {"measurement": "epitope sequence for which the antibody exhibits specificity", "setting": "[6]; linear peptides of 5, 10 and 15 amino acids, antibody 1-250 μg/ml", "result": "QVELF"}, {"measurement": "percentage of cell death", "setting": "[7]", "result": 15, "unit": "%"}, {"measurement": "tumour mass on magnetic resonance scan", "setting": "[8]", "result": "much smaller mass"}, {"measurement": "ROS production", "setting": "[9]", "result": "falls to the control level"}, {"measurement": "fall in ROS production", "setting": "[10]; FIG. 11 legend, versus control", "result": "about fourfold"}, {"measurement": "reduction of the slope of the ROS increase curve", "setting": "[10]; fluorescence signals proportional to cytoplasmic ROS", "result": "about fivefold"}]}]}
